In publication PMC9087215:

Assays:
[1] = target: Klebsiella pneumoniae PriA helicase (Klebsiella pneumoniae subsp. pneumoniae MGH 78578) (UniProt A6TGC5)
PaSSB(W54A) = PaSSB(W54A) (Pseudomonas aeruginosa, UniProt P40947 1-165, W54A); test: EMSA
PaSSB = PaSSB (Pseudomonas aeruginosa, UniProt P40947 1-165); test: EMSA
PaSSB(W40A) = PaSSB(W40A) (Pseudomonas aeruginosa, UniProt P40947 1-165, W40A); test: EMSA
PaSSB(F60A) = PaSSB(F60A) (Pseudomonas aeruginosa, UniProt P40947 1-165, F60A); test: EMSA
PaSSB(W88A) = PaSSB(W88A) (Pseudomonas aeruginosa, UniProt P40947 1-165, W88A); test: EMSA

## KpSSBn-StSSBc chimeric protein (from UniProt P0A2F6 92-176)
[1]
  ATPase activity of KpPriA with 10 μM KpSSBn-StSSBc, fold stimulation: 14 fold

B1: dT50 (ssDNA)
DNA: TTTTTTTTTTTTTTTTTTTTTTTTTTTTTTTTTTTTTTTTTTTTTTTTTT
PaSSB(W54A)
  apparent K (half saturation): 522 ± 26 nM
PaSSB
  apparent K (half saturation): 355 ± 21 nM
PaSSB(W40A)
  apparent K (half saturation): 434 ± 19 nM
PaSSB(F60A)
  apparent K (half saturation): 569 ± 24 nM
PaSSB(W88A)
  apparent K (half saturation): 1230 ± 61 nM
